{"source": "paper PMC10745484", "target": "recombinant Fe-S cluster assembly ATP-binding protein (SufC) (Streptococcus pneumoniae strain D39)", "experiment": "SPR; Biacore X100; rSufC immobilised on a CM5 chip (1000 RU); plasminogen or BSA flowed at 6.25 to 100 nM, 25 °C, 100 mM HEPES pH 7.4, 150 mM NaCl, 3 mM EDTA, 0.005% surfactant P20; apparent constants", "data": [{"substance": "plasminogen from human plasma (natural protein)", "values": [{"measurement": "Kd", "value": 79.5, "unit": "nM"}, {"measurement": "koff", "value": 0.00156, "unit": "s⁻¹"}, {"measurement": "kon", "value": 19600, "unit": "M⁻¹ s⁻¹"}]}]}
